Tests used:
CsMYC2-His = CsMYC2-His (Citrus sinensis (Newhall orange), UniProt V4SX11 1-519); assay: BLI; BLI: PBS, 100 nM biotin probe on SA sensors, CsMYC2-His 62.5-1000 nM, 1:1 fit. DNA pull-down: probe bound to beads in 10 mM Tris-HCl pH 7.5, 1 mM EDTA, 1 M NaCl, 0.1% Tween-20 at RT, then protein 1 h on ice. EMSA: as in Yue et al. 2019, buffer not given; settings: protein: recombinant; tags: His (pET30A); chain copies: 2; label: 3' biotin
CsMYC2-MBP = CsMYC2-MBP (Citrus sinensis (Newhall orange), UniProt V4SX11 1-519); assay: EMSA; BLI: PBS, 100 nM biotin probe on SA sensors, CsMYC2-His 62.5-1000 nM, 1:1 fit. DNA pull-down: probe bound to beads in 10 mM Tris-HCl pH 7.5, 1 mM EDTA, 1 M NaCl, 0.1% Tween-20 at RT, then protein 1 h on ice. EMSA: as in Yue et al. 2019, buffer not given; settings: protein: recombinant; tags: MBP (pMAL-C2X); chain copies: 2; label: 3' biotin
Chain of CsMYC2-MBP (V4SX11 entry or part of it): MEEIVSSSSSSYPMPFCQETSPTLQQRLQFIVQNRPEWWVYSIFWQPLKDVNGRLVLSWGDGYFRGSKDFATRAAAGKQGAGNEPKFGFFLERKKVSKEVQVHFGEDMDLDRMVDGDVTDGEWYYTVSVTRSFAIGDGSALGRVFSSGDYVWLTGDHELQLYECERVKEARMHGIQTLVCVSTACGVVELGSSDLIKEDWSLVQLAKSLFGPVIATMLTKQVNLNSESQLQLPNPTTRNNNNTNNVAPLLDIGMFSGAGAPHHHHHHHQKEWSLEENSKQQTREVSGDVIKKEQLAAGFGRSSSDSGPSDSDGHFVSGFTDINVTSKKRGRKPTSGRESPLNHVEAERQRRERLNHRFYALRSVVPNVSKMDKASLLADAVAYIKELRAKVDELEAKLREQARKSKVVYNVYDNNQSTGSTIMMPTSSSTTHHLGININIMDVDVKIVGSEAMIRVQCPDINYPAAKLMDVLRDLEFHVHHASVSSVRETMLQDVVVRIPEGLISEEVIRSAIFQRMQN

Chain of CsMYC2-His (V4SX11 entry or part of it): as above

B1: CsCCD4b-probe (dsDNA)
DNA 1: GTACCATACAACTGTGGCACCATAGCTGGATC
DNA 2: GATCCAGCTATGGTGCCACAGTTGTATGGTAC
CsMYC2-His
  Kd: 58 nM

B2: CsPSY-probe (dsDNA)
DNA 1: AAAACTTCAATTGATACTCTTCCACTAATTCT
DNA 2: AGAATTAGTGGAAGAGTATCAATTGAAGTTTT
CsMYC2-MBP
  binding result: binds

B3: CsLCYb-probe (dsDNA)
DNA 1: CGACAGTTGGACCACTAGCTTCGTGACCGTTGT
DNA 2: ACAACGGTCACGAAGCTAGTGGTCCAACTGTCG
CsMYC2-MBP
  binding result: binds

B4: CsBCH-probe (dsDNA)
DNA 1: AATTTCGAATCTAACAAATGTTTCGTTGATAT
DNA 2: ATATCAACGAAACATTTGTTAGATTCGAAATT
CsMYC2-MBP
  binding result: binds

B5: CsMPK6-probe (dsDNA)
DNA 1: AGCTCTATGTAACAACTGGGATCTATTTGAAA
DNA 2: TTTCAAATAGATCCCAGTTGTTACATAGAGCT
CsMYC2-MBP
  binding result: binds
